Data as given in patent US20020090382A1, “Antiviral compounds and methods” (University of Pittsburgh of the Commonwealth System of …, priority 2000, published 2002).
Positions count from the first letter of the chain named. Names may count otherwise.

B1: L25D (protein)
chain: KYALIDASLKMADPNRFRGKDLPVDDQLTDPPGVRRVYHIQAGLPDPFQPPSLPITVYYAVLERACRSVLLNAPSEAPQIVRGASEDVRKQPYNLTIAWFRMGGNCAIPITVMEYTECSYNKSLGACPIRTQPRWNYYDSFSAVSEDNLGFLMHAPAFETAGTYLRLVKINDWTEITQFILEHRAKGSCKYALPLRIPPSACLSPQAYQQGVTVDSIGMLPRFIPENQRTVAVYSLKIAGWHGPKAPYTSTLLPPELSETPNATQPELAPEDPEDSALLEDPVGTVAPQIPPNWHIPSIQDAATPYHPPATPNNMGLIAGAVGGSLLAALVICGIVYWMHRRTRKAPKRIRLPHIREDDQPSSHQPLFY
B2: L25H (protein)
chain: B1 chain with D25H
B3: L25T (protein)
chain: B1 chain with D25T
B4: D26H (protein)
chain: B1 chain with D25L, D26H

test system: VD60 cells; assay: Transient complementation of gD-null virus KΔUS3-8Z, titers on VD60 cells; type: cell-based; conditions: relative to wild-type gD (100%) and gD− (0%); KΔUS3-8Z virus
Excerpt: (§1) In a first transient complementation assay, several cell lines were employed. VD60 cells express wild-type gD endogenously which complements the deleted gD gene of KΔUS3-8Z for plaque formation, but only if the virus can initially infect using the gD product of the transfected gene. Thus, plaque formation on VD60 cells indicates complementation of gD's attachment/entry function by the transfected gene. CHO cells lack gD receptors and are resistant to HSV infection, but CHO cells transduced with HveA or HveC expression plasmids (CHO-HveA and CHO-HveC cells, respectively) are susceptible. KΔUS3-8Z misses the complete gD gene (US6) due to a large deletion extending from US3 to US8 and therefore offers no target for homologous recombination with transfected gD genes or the stable gD gene of VD60 cells. […] Since the progeny virus lacks gD, plaques will not form on these cells and virus entry was therefore determined by measurement of lacZ reporter gene expression.
(§2) To conduct the assay, Vero cells were transfected with LIPOFECTAMINE-PLUS (GIBCO) for 4 h at 37° C., the cell monolayers washed and incubated with DMEM/10% fetal bovine serum (FBS) for 16 h at 37° C., and the transfected cells infected with KΔUS3-8Z at an MOI of 3 for 2 h at 37° C. After removal of the medium and inactivation of residual extracellular virus by incubation of the monolayer with 0.1M glycine (pH 3.0) for 1 min at room temperature, fresh medium was added and the cells incubated at 37° C. for 48 hours. The medium was subsequently removed and temporarily stored on ice while the cells were being lysed by freeze-thawing and sonication. Cell debris was pelleted by low-speed centrifugation and the supernatant combined with the previously stored medium. Virus titers were determined on gD-complementing VD60 cells. Complementing activity was determined by infection of CHO-HveA, CHO-HveC, and control CHO-K cells. Infected cells were lysed in a buffer containing 1% NP-40, 1 mM MgCl2, 50 mM β-mercaptoethanol, and 4 mg/ml β-galatosidase substrate O-nitrophenyl β-D-galactopyranoside (ONPG, Sigma) in a total volume of 50 μl. The enzyme-substrate reaction was carried out at 37° C. and stopped by addition of an equal volume of 1M Na2CO3 after color development. β-galactosidase activity was measured by reading the absorbance at 420 nm. One hundred percent complementation was defined as the difference between the A420 values obtained for the wild-type (pSP72-gD) and negative control (pgD^−) gD plasmids. Relative complementation efficiencies were calculated as 100%×[A420(mutant)−A420(gD^−)]/[A420(wild type)−A420(gD^−)].

Point of comparison: B4, “% Complementation VD60” value 17%. Against it:
- B1 — lower, 10%
- B2 — lower, 14%
- B3 — lower, 14%

test system: CHO-HveC cells; assay: Transient complementation of gD-null virus KΔUS3-8Z, entry into CHO-HveC cells (lacZ); type: cell-based, Chinese hamster; conditions: relative to wild-type gD (100%) and gD− (0%); KΔUS3-8Z virus, A420 β-galactosidase
Excerpt: as §1, §2

Point of comparison: B2, “% Complementation CHO-HveC” value 12%. Against it:
- B1 — higher, 14%
- B3 — lower, 3%
- B4 — lower, 11%

test system: CHO-HveA cells; assay: Transient complementation of gD-null virus KΔUS3-8Z, entry into CHO-HveA cells (lacZ); type: cell-based, Chinese hamster; conditions: relative to wild-type gD (100%) and gD− (0%); KΔUS3-8Z virus, A420 β-galactosidase
Excerpt: as §1, §2

Point of comparison: B3, “% Complementation CHO-HveA” value 0%. Against it:
- B1 — the same, 0%
- B2 — the same, 0%
- B4 — higher, 10%
